# Test results from PMC12666128, “Engineering ω-transaminase for efficient dihydroxyacetone transamination in serinol biosynthesis starting from methanol” (Synthetic and Systems Biotechnology, 2025).
# Substrate: O=C(CO)CO
# Type: biochemical, Chromobacterium violaceum
# Conditions: DHA as varied substrate; PLP-dependent
protein,measurement,value
Cv-ωTA (Chromobacterium violaceum ATCC 12472) (protein) MQKQRTTSQWRELDAAHHLHPFTDTASLNQAGARVMTRGEGVYLWDSEGNKIIDGMAGLWCVNVGYGRKDFAEAARRQMEELPFYNTFFKTTHPAVVELSSLLAEVTPAGFDRVFYTNSGSESVDTMIRMVRRYWDVQGKPEKKTLIGRWNGYHGSTIGGASLGGMKYMHEQGDLPIPGMAHIEQPWWYKHGKDMTPDEFGVVAARWLEEKILEIGADKVAAFVGEPIQGAGGVIVPPATYWPEIERICRKYDVLLVADEVICGFGRTGEWFGHQHFGFQPDLFTAAKGLSSGYLPIGAVFVGKRVAEGLIAGGDFNHGFTYSGHPVCAAVAHANVAALRDEGIVQRVKDDIGPYMQKRWRETFSRFEHVDDVRGVGMVQAFTLVKNKAKRELFPDFGEIGTLCRDIFFRNNLIMRACGDHIVSAPPLVMTRAEVDEMLAVAERCLEEFEQTLKARGLA,Km,15.2 ± 0.11 mM
same,kcat,1.61 ± 0.07 s⁻¹
same,kcat/Km,100 M⁻¹ s⁻¹
